Our source for the reduction of glycosyltransferase activity on TAB1 (7-409) against WT OGT, western blot with an O-GlcNAc Ser395 specific antibody, quantified, binding result and KM of the TAB1 peptide in steady-state kinetics of O-GlcNAc transfer (50 nM hOGT, 50 µM UDP-GlcNAc, UDP formation by fluorescence) values is article PMC5493779, “Recognition of a glycosylation substrate by the O-GlcNAc transferase TPR repeats” (Open Biology, 2017).

In assay [1] the target is His6-hOGT (312-1031) 5N5A quintuple mutant (human) (UniProt O15294).
Assay [2] addresses T1, human O-GlcNAc transferase, truncated (315-1031), as it stands in the substrate:OGT fusion proteins (human, UniProt O15294-3 315-1031).
T1 construct: human O-GlcNAc transferase (OGT), codon-optimised, residues 315-1031 starting at Thr315; holds TPR repeats and the catalytic domain; In the crystals this stretch is joined on one chain to the substrate peptide (m2 or m3) by a GGG linker; the whole chains are m4 and m5; also called hOGT; source: E. coli BL21 (DE3) pLysS, purified (Ni-NTA, anion exchange, gel filtration) as part of the fusion …
T1 sequence (looked up): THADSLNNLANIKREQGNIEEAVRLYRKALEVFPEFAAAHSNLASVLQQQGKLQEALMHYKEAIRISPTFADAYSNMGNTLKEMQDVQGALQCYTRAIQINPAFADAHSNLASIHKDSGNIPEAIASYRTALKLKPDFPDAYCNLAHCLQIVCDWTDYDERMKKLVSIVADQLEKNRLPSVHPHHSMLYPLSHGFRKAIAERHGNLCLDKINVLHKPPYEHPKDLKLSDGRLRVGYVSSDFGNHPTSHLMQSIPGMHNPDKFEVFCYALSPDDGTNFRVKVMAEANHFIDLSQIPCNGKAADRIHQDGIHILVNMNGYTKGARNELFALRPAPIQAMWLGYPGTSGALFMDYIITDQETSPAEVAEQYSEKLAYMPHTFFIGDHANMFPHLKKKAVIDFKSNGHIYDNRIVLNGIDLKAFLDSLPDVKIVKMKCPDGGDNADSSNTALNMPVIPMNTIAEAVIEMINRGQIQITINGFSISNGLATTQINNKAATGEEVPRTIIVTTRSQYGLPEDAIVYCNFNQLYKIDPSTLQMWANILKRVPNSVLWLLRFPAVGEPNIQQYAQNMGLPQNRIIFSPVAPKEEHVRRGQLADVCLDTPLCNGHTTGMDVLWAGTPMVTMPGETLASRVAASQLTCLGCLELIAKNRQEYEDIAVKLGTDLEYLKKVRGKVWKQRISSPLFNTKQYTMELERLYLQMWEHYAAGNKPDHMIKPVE
Briefly: crystal structure; substrate peptide fused through a 3xGly linker to the N-terminus of OGT 315-1031 (one chain); about 10 mg/ml protein with 5 mM UDP, sitting drop, 0.1 M Tris pH 8.5; one molecule per asymmetric unit. The note with it: both partners purified.

In assay [3] the target is T2, His6-hOGT (312-1031), wild type (human) (UniProt O15294).
T2 sequence: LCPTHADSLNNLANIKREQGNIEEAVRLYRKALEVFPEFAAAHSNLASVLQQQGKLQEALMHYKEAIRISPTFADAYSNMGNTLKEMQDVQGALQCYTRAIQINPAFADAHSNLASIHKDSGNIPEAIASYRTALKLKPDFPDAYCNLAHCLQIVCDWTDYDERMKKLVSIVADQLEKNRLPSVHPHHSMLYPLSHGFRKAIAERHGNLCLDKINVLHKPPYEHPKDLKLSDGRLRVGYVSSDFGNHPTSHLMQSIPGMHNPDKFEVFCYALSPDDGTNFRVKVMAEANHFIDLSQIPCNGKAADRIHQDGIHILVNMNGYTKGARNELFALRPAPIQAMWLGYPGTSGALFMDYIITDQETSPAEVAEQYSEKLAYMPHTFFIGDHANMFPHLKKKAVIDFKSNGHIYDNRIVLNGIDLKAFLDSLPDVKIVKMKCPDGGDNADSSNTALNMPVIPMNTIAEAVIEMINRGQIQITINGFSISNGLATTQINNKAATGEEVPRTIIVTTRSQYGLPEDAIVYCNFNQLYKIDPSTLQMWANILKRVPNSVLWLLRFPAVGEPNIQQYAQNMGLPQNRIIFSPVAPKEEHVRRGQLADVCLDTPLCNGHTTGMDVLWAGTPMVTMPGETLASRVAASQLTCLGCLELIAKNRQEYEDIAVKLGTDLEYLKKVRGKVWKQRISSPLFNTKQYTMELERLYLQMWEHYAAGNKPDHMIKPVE

Where no end group is shown, it is not given here.

B1: TAB1 (7-409) protein (domain or fragment)
chain: SLLQSEQQPSWTDDLPLCHLSGVGSASNRSYSADGKGTESHPPEDSWLKFRSENNCFLYGVFNGYDGNRVTNFVAQRLSAELLLGQLNAEHAEADVRRVLLQAFDVVERSFLESIDDALAEKASLQSQLPEGVPQHQLPPQYQKILERLKTLEREISGGAMAVVAVLLNNKLYVANVGTNRALLCKSTVDGLQVTQLNVDHTTENEDELFRLSQLGLDAGKIKQVGIICGQESTRRIGDYKVKYGYTDIDLLSAAKSKPIIAEPEIHGAQPLDGVTGFLVLMSEGLYKALEAAHGPGQANQEIAAMIDTEFAKQTSLDAVAQAVVDRVKRIHSDTFASGGERARFCPRHEDMTLLVRNFGYPLGEMSQPTPSPAPAAGGRVYPVSVPYSSAQSTSKTSVTLSL
Regarding B1, the reduction of glycosyltransferase activity on TAB1 (7-409) against WT OGT, western blot with an O-GlcNAc Ser395 specific antibody, quantified in assay [1] was determined as 50%.

B2: 18-mer HCF1PRO repeat peptide (PPCETHETGTTNTATTAT) (peptide)
peptide: PPCETHETGTTNTATTAT
notes: host cell factor 1 (HCF1), one repeat of the proteolytic processing domain; In the crystal its C-terminus is joined by a GGG linker to Thr315 of OGT on one chain; the whole chain is m4; The PreScission site of the vector was replaced by the peptide and linker; also called HCF1 peptide; host cell factor 1 PPD repeat; source: E. coli BL21 (DE3) pLysS, purified (Ni-NTA, anion exchange, gel …)
Take B2: the binding result in assay [2] is listed as “binds”.

B3: 18-mer TAB1 peptide derived from the S395 glycosylation site (VPYSSAQSTSKTSVTLSL) (peptide)
peptide: VPYSSAQSTSKTSVTLSL
modifications: also: O-GlcNAc on Ser395
notes: In the crystal its C-terminus is joined by a GGG linker to Thr315 of OGT on one chain; the whole chain is m5; Extra density near Ser396 and Ser399 hints at further glycosylation; also called TAB1 C-terminal domain; source: E. coli BL21 (DE3) pLysS, purified (Ni-NTA, anion exchange, gel filtration) as part of the fusion protein
Turning to B3, the binding result in assay [2] is “binds”.

B4: free TAB1 peptide … (peptide)
peptide: KKPVSVPYSSAQSTSKTSVTLSL
Regarding B4, the KM of the TAB1 peptide in steady-state kinetics of O-GlcNAc transfer (50 nM hOGT, 50 µM UDP-GlcNAc, UDP formation by fluorescence) in assay [3] amounted to 42 µM.
